Measurements as given in PMC8769549.

What was measured:
[1] = target: SARS-CoV-2 nsp3a (1 to 206) (SARS-CoV-2); assay: ITC
[2] = target: SARS-CoV-2 nsp3 ubiquitin-like domain Ubl1 (1 to 111) (SARS-CoV-2); assay: ITC

For “SARS-CoV-2 nucleoprotein N123 (domains N1, N2 and N3) (domain or fragment)”, the Kd [1] was 0.131 µM, the stoichiometry N [1] was 0.665 and the Kd [2] was 0.072 µM. For the same substance, the stoichiometry N [2] was 0.903.
